The text below walks through data of the supplement of paper PMC5998384.

Data set [1] deals with HeLa Kyoto. Description: solubility in G1/S (NP-40 vs SDS abundance) (log2 ratio); higher = more soluble. The note with it: cell cycle stage: G1/S.
Data set [2] relates to HeLa Kyoto. Description: thermal stability score vs G1/S (z-score of summed log2 fold changes over temperatures); higher = more thermally stable than in G1/S.
Data set [3] concerns HeLa Kyoto. Description: solubility change mitosis vs G1/S (difference of NP-40 vs SDS log2 ratios) (log2 ratio difference); higher = more soluble in mitosis.
Data set [4] concerns HeLa Kyoto. Description: melting temperature (median over replicates), in situ; higher = more thermally stable.
[5] abbreviates: cell cycle stage: early G1 (4.5 h after nocodazole release).
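Throughout, for melting temperature (median over replicates), in situ: HeLa Kyoto cells synchronized by double thymidine or nocodazole block, proteins quantified by TMT10plex mass spectrometry, three independent biological replicates.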
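Throughout, for solubility change mitosis vs G1/S (difference of NP-40 vs SDS log2 ratios): synchronized HeLa Kyoto cells (double thymidine block for G1/S, nocodazole release for mitosis), protein amounts in NP-40 versus SDS lysates quantified by mass spectrometry, three biological replicates.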
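Throughout, for solubility in G1/S (NP-40 vs SDS abundance): HeLa Kyoto cells arrested at G1/S by double thymidine block, proteins quantified by TMT10plex mass spectrometry in mild NP-40 versus SDS extracts, three biological replicates.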
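Throughout, for thermal stability score vs G1/S (z-score of summed log2 fold changes over temperatures): synchronized HeLa Kyoto cells, proteins quantified by TMT10plex mass spectrometry, three biological replicates, mitosis taken 0.5 h after nocodazole release, G1/S directly after double thymidine block.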

“MAAAVGVRGRYELPPCSGPGWLLSLSALLSVAARGAFATTHWVVTEDGKIQQQVDSPMNLKHPHDLVILMRQEATVNYLKELEKQLVAQKIHIEENEDRDTGLEQRHNKEDPDCIKAKVPLGDLDLYDGTYITLESKDISPEDYIDTESPVPPDPEQPDCTKILELPYSIHAFQHLRGVQERVNLSAPLLPKEDPIFTYLSKRLGRSIDDIGHLIHEGLQKNTSSWVLYNMASFYWRIKNEPYQVVECAMRALHFSSRHNKDIALVNLANVLHRAHFSADAAVVVHAALDDSDFFTSYYTLGNIYAMLGEYNHSVLCYDHALQARPGFEQAIKRKHAVLCQQKLEQKLEAQHRSLQRTLNELKEYQKQHDHYLRQQEILEKHKLIQEEQILRNIIHETQMAKEAQLGNHQICRLVNQQHSLHCQWDQPVRYHRGDIFENVDYVQFGEDSSTSSMMSVNFDVQSNQSDINDSVKSSPVAHSILWIWGRDSDAYRDKQHILWPKRADCTESYPRVPVGGELPTYFLPPENKGLRIHELSSDDYSTEEEAQTPDCSITDFRKSHTLSYLVKELEVRMDLKAKMPDDHARKILLSRINNYTIPEEEIGSFLFHAINKPNAPIWLILNEAGLYWRAVGNSTFAIACLQRALNLAPLQYQDVPLVNLANLLIHYGLHLDATKLLLQALAINSSEPLTFLSLGNAYLALKNISGALEAFRQALKLTTKCPECENSLKLIRCMQFYPFLYNITSSVCSGTVVEESNGSDEMENSDETKMSEEILALVDEFQQAWPLEGFGGALEMKGRRLDLQGIRVLKKGPQDGVARSSCYGDCRSEDDEATEWITFQVKRVKKPKGDHKKTPGKKVETGQIENGHRYQANLEITGPKVASPGPQGKKRDYQRLGWPSPDECLKLRWVELTAIVSTWLAVSSKNIDITEHIDFATPIQQPAMEPLCNGNLPTSMHTLDHLHGVSNRASLHYTGESQLTEVLQNLGKDQYPQQSLEQIGTRIAKVLEKNQTSWVLSSMAALYWRVKGQGKKAIDCLRQALHYAPHQMKDVPLISLANILHNAKLWNDAVIVATMAVEIAPHFAVNHFTLGNVYVAMEEFEKALVWYESTLKLQPEFVPAKNRIQTIQCHLMLKKGRRSP [TTC17]”: the “solubility in G1/S (log2)” value in the data set with HeLa Kyoto [1] was found to be 0.107. Besides, the thermal stability score in the data set on HeLa Kyoto [2] (setting [5]) was found to be 2.32; with HeLa Kyoto [2] (cell cycle stage: mitosis), 2.24. Further, the “solubility change mitosis (log2)” value in the data set on HeLa Kyoto [3] came to 0.0442. The results for the melting temperature in the data set with HeLa Kyoto [4] (cell cycle stage: G1/S) and in the data set on HeLa Kyoto [4] (cell cycle stage: mitosis) were 54.8 °C and 56.8 °C, respectively.

As to “MLLNGDCPESLKKEAAAAEPPRENGLDEAGPGDETTGQEVIVIQDTGFSVKILAPGIEPFSLQVSPQEMVQEIHQVLMDREDTCHRTCFSLHLDGNVLDHFSELRSVEGLQEGSVLRVVEEPYTVREARIHVRHVRDLLKSLDPSDAFNGVDCNSLSFLSVFTDGDLGDSGKRKKGLEMDPIDCTPPEYILPGSRERPLCPLQPQNRDWKPLQCLKVLTMSGWNPPPGNRKMHGDLMYLFVITAEDRQVSITASTRGFYLNQSTAYHFNPKPASPRFLSHSLVELLNQISPTFKKNFAVLQKKRVQRHPFERIATPFQVYSWTAPQAEHAMDCVRAEDAYTSRLGYEEHIPGQTRDWNEELQTTRELPRKNLPERLLRERAIFKVHSDFTAAATRGAMAVIDGNVMAINPSEETKMQMFIWNNIFFSLGFDVRDHYKDFGGDVAAYVAPTNDLNGVRTYNAVDVEGLYTLGTVVVDYRGYRVTAQSIIPGILERDQEQSVIYGSIDFGKTVVSHPRYLELLERTSRPLKILRHQVLNDRDEEVELCSSVECKGIIGNDGRHYILDLLRTFPPDLNFLPVPGEELPEECARAGFPRAHRHKLCCLRQELVDAFVEHRYLLFMKLAALQLMQQNASQLETPSSLENGGPSSLESKSEDPPGQEAGSEEEGSSASGLAKVKELAETIAADDGTDPRSREVIRNACKAVGSISSTAFDIRFNPDIFSPGVRFPESCQDEVRDQKQLLKDAAAFLLSCQIPGLVKDCMEHAVLPVDGATLAEVMRQRGINMRYLGKVLELVLRSPARHQLDHVFKIGIGELITRSAKHIFKTYLQGVELSGLSAAISHFLNCFLSSYPNPVAHLPADELVSKKRNKRRKNRPPGAADNTAWAVMTPQELWKNICQEAKNYFDFDLECETVDQAVETYGLQKITLLREISLKTGIQVLLKEYSFDSRHKPAFTEEDVLNIFPVVKHVNPKASDAFHFFQSGQAKVQQGFLKEGCELINEALNLFNNVYGAMHVETCACLRLLARLHYIMGDYAEALSNQQKAVLMSERVMGTEHPNTIQEYMHLALYCFASSQLSTALSLLYRARYLMLLVFGEDHPEMALLDNNIGLVLHGVMEYDLSLRFLENALAVSTKYHGPKALKVALSHHLVARVYESKAEFRSALQHEKEGYTIYKTQLGEDHEKTKESSEYLKCLTQQAVALQRTMNEIYRNGSSANIPPLKFTAPSMASVLEQLNVINGILFIPLSQKDLENLKAEVARRHQLQEASRNRDRAEEPMATEPAPAGAPGDLGSQPPAAKDPSPSVQG [CLUH]”, in the data set with HeLa Kyoto [1], the “solubility in G1/S (log2)” value was -0.0434. Also, the thermal stability score with HeLa Kyoto [2] (setting [5]) was 0.526; with HeLa Kyoto [2] (cell cycle stage: mitosis), -0.315. For the same sequence, the “solubility change mitosis (log2)” value in the data set with HeLa Kyoto [3] was -0.119. Also, the melting temperature was found to be 51.1 °C with HeLa Kyoto [4] (cell cycle stage: G1/S) and 50.1 °C in the data set on HeLa Kyoto [4] (cell cycle stage: mitosis).

With “MSSRIARALALVVTLLHLTRLALSTCPAACHCPLEAPKCAPGVGLVRDGCGCCKVCAKQLNEDCSKTQPCDHTKGLECNFGASSTALKGICRAQSEGRPCEYNSRIYQNGESFQPNCKHQCTCIDGAVGCIPLCPQELSLPNLGCPNPRLVKVTGQCCEEWVCDEDSIKDPMEDQDGLLGKELGFDASEVELTRNNELIAVGKGSSLKRLPVFGMEPRILYNPLQGQKCIVQTTSWSQCSKTCGTGISTRVTNDNPECRLVKETRICEVRPCGQPVYSSLKKGKKCSKTKKSPEPVRFTYAGCLSVKKYRPKYCGSCVDGRCCTPQLTRTVKMRFRCEDGETFSKNVMMIQSCKCNYNCPHANEAAFPFYRLFNDIHKFRD [CYR61]”, the “solubility in G1/S (log2)” value in the data set with HeLa Kyoto [1] was -0.183. In addition, the thermal stability score in the data set on HeLa Kyoto [2] (setting [5]) was determined as 5.63; in the data set on HeLa Kyoto [2] (cell cycle stage: mitosis), 3.33. Moreover, the “solubility change mitosis (log2)” value with HeLa Kyoto [3] is -0.133. Also, the melting temperature in the data set on HeLa Kyoto [4] (cell cycle stage: G1/S) worked out at 52.8 °C; in the data set on HeLa Kyoto [4] (cell cycle stage: mitosis), 54.1 °C.

Take “MALKQISSNKCFGGLQKVFEHDSVELNCKMKFAVYLPPKAETGKCPALYWLSGLTCTEQNFISKSGYHQSASEHGLVVIAPDTSPRGCNIKGEDESWDFGTGAGFYVDATEDPWKTNYRMYSYVTEELPQLINANFPVDPQRMSIFGHSMGGHGALICALKNPGKYKSVSAFAPICNPVLCPWGKKAFSGYLGTDQSKWKAYDATHLVKSYPGSQLDILIDQGKDDQFLLDGQLLPDNFIAACTEKKIPVVFRLQEGYDHSYYFIATFITDHIRHHAKYLNA [ESD]”: the “solubility in G1/S (log2)” value in the data set with HeLa Kyoto [1] is -0.0889. In addition, the thermal stability score in the data set with HeLa Kyoto [2] (setting [5]) is -1.51; with HeLa Kyoto [2] (cell cycle stage: mitosis) it was -2.28. The “solubility change mitosis (log2)” value with HeLa Kyoto [3] was -0.0867. Further, the melting temperature was determined as 55.8 °C in the data set on HeLa Kyoto [4] (cell cycle stage: G1/S) and 56.4 °C in the data set with HeLa Kyoto [4] (cell cycle stage: mitosis).
